# Changes are numbered by the printed parent chain.
# B1: IgG1-F162 (antibody)
# heavy: QVQLQESGPGLVKPSETLSLTCAVSGHSISHDHAWSWVRQPPGEGLEWIGFISYSGITNYNPSLQGRVTISRDNSKNTLYLQMNSLRAEDTAVYYCARSLARTTAMDYWGEGTLVTVSSASTKGPSVFPLAPSSKSTSGGTAALGCLVKDYFPEPVTVSWNSGALTSGVHTFPAVLQSSGLYSLSSVVTVPSSSLGTQTYICNVNHKPSNTKVDKKVEPKSCDKTHTCPPCPAPELLGGPSVFLFPPKPKDTLWISRTPEVTCVVVDVSHEDPEVKFNWYVDGVEVHNAKTKPREEQYNSTYRVVSVLTVLHQDWLNGKEYKCKVSNKALPAPIEKTISKAKGQPREPQVYTLPPSRDELTKNQVSLTCLVKGFYPSDIAVEWESNGQPENNYKTTPPVLDSDGSFFLYSKLTVDKSRWQQGNVFSCSVYHEALHYHYTQKSLSLSP
# light: not shown
# notes: EU numbering; copies: 2 + 2
# B2: IgG1-F171 (antibody)
# heavy: B1 heavy with D314A, Y430M
# light: not shown
# notes: EU numbering; copies: 2 + 2
# B3: IgG1-F176 (antibody)
# heavy: B1 heavy with S241K, Y430M
# light: not shown
# notes: EU numbering; copies: 2 + 2
# B4: IgG1-F189 (antibody)
# heavy: B1 heavy with W254Y, T309A, Y430M
# light: not shown
# notes: EU numbering; copies: 2 + 2
# B5: IgG1-F179 (antibody)
# heavy: B1 heavy with N327G, Y430M
# light: not shown
# notes: EU numbering; copies: 2 + 2
# B6: IgG1-F230 (antibody)
# heavy: B1 heavy with W254Y, P389E, Y430M
# light: not shown
# notes: EU numbering; copies: 2 + 2
# B7: IgG1-F166 (antibody)
# heavy: B1 heavy with T309Q, Y430M
# light: not shown
# notes: EU numbering; copies: 2 + 2
# B8: IgG1-F238 (antibody)
# heavy: B1 heavy with W254Y, Y430D
# light: not shown
# notes: EU numbering; copies: 2 + 2
# B9: IgG1-F192 (antibody)
# heavy: B1 heavy with W254M, P259A, T309A, Y430L
# light: not shown
# notes: EU numbering; copies: 2 + 2
# B10: IgG1-F223 (antibody)
# heavy: B1 heavy with W254Y, K362H, Y430M
# light: not shown
# notes: EU numbering; copies: 2 + 2
# B11: IgG1-F195 (antibody)
# heavy: B1 heavy with W254M, P259L, T309Q, Y430L
# light: not shown
# notes: EU numbering; copies: 2 + 2
# B12: IgG1-F196 (antibody)
# heavy: B1 heavy with W254M, P259A, T309Q, Y430L
# light: not shown
# notes: EU numbering; copies: 2 + 2
# B13: IgG1-F220 (antibody)
# heavy: B1 heavy with W254Y, Q313H, Y430M
# light: not shown
# notes: EU numbering; copies: 2 + 2
# B14: IgG1-F170 (antibody)
# heavy: B1 heavy with Q313A, Y430M
# light: not shown
# notes: EU numbering; copies: 2 + 2
# B15: IgG1-F219 (antibody)
# heavy: B1 heavy with W254Y, T291H, Y430M
# light: not shown
# notes: EU numbering; copies: 2 + 2
# B16: IgG1-F225 (antibody)
# heavy: B1 heavy with W254Y, L316R, Y430M
# light: not shown
# notes: EU numbering; copies: 2 + 2
# B17: IgG1-F173 (antibody)
# heavy: B1 heavy with E382A, Y430M
# light: not shown
# notes: EU numbering; copies: 2 + 2
# B18: IgG1-F217 (antibody)
# heavy: B1 heavy with W254Y, K336L, Y430M
# light: not shown
# notes: EU numbering; copies: 2 + 2
# B19: IgG1-F183 (antibody)
# heavy: B1 heavy with W254M, P259T, Y430L, Y436W
# light: not shown
# notes: EU numbering; copies: 2 + 2
# B20: IgG1-F169 (antibody)
# heavy: B1 heavy with V307A, Y430M
# light: not shown
# notes: EU numbering; copies: 2 + 2
# B21: IgG1-F168 (antibody)
# heavy: B1 heavy with D378A, Y430M
# light: not shown
# notes: EU numbering; copies: 2 + 2
# B22: IgG1-F190 (antibody)
# heavy: B1 heavy with W254Y, T309Q, Y430M
# light: not shown
# notes: EU numbering; copies: 2 + 2
# B23: IgG1-F229 (antibody)
# heavy: B1 heavy with W254Y, R257E, Y430M
# light: not shown
# notes: EU numbering; copies: 2 + 2
# B24: IgG1-F209 (antibody)
# heavy: B1 heavy with W254Y, T309M, Y430M
# light: not shown
# notes: EU numbering; copies: 2 + 2
# B25: IgG1-F226 (antibody)
# heavy: B1 heavy with W254Y, L316K, Y430M
# light: not shown
# notes: EU numbering; copies: 2 + 2
# B26: IgG1-F167 (antibody)
# heavy: B1 heavy with V305A, Y430M
# light: not shown
# notes: EU numbering; copies: 2 + 2
# B27: IgG1-F203 (antibody)
# heavy: B1 heavy with W254Y, T309F, Y430M
# light: not shown
# notes: EU numbering; copies: 2 + 2
# B28: IgG1-F216 (antibody)
# heavy: B1 heavy with W254Y, T309Y, Y430M
# light: not shown
# notes: EU numbering; copies: 2 + 2
# B29: IgG1-F204 (antibody)
# heavy: B1 heavy with W254Y, T309G, Y430M
# light: not shown
# notes: EU numbering; copies: 2 + 2
# B30: IgG1-F164 (antibody)
# heavy: B1 heavy with P240A, Y430M
# light: not shown
# notes: EU numbering; copies: 2 + 2
# B31: IgG1-F213 (antibody)
# heavy: B1 heavy with W254Y, T309S, Y430M
# light: not shown
# notes: EU numbering; copies: 2 + 2
# B32: IgG1-F211 (antibody)
# heavy: B1 heavy with W254Y, T309P, Y430M
# light: not shown
# notes: EU numbering; copies: 2 + 2
# B33: IgG1-F222 (antibody)
# heavy: B1 heavy with W254Y, N317H, Y430M
# light: not shown
# notes: EU numbering; copies: 2 + 2
# B34: IgG1-F198 (antibody)
# heavy: B1 heavy with W254M, P259V, T309Q, Y430L
# light: not shown
# notes: EU numbering; copies: 2 + 2
# B35: IgG1-F208 (antibody)
# heavy: B1 heavy with W254Y, T309L, Y430M
# light: not shown
# notes: EU numbering; copies: 2 + 2
# B36: IgG1-F184 (antibody)
# heavy: B1 heavy with W254M, P259V, Y430L, Y436W
# light: not shown
# notes: EU numbering; copies: 2 + 2
# B37: IgG1-F218 (antibody)
# heavy: B1 heavy with W254Y, G387H, Y430M
# light: not shown
# notes: EU numbering; copies: 2 + 2
# B38: IgG1-F228 (antibody)
# heavy: B1 heavy with W254Y, L311E, Y430M
# light: not shown
# notes: EU numbering; copies: 2 + 2
# B39: IgG1-F182 (antibody)
# heavy: B1 heavy with W254M, P259A, Y430L, Y436W
# light: not shown
# notes: EU numbering; copies: 2 + 2
# B40: IgG1-F172 (antibody)
# heavy: B1 heavy with K319A, Y430M
# light: not shown
# notes: EU numbering; copies: 2 + 2
# B41: IgG1-F194 (antibody)
# heavy: B1 heavy with W254M, P259V, T309A, Y430L
# light: not shown
# notes: EU numbering; copies: 2 + 2
# B42: IgG1-F215 (antibody)
# heavy: B1 heavy with W254Y, T309W, Y430M
# light: not shown
# notes: EU numbering; copies: 2 + 2
# B43: IgG1-F227 (antibody)
# heavy: B1 heavy with W254Y, N288E, Y430M
# light: not shown
# notes: EU numbering; copies: 2 + 2
# B44: IgG1-F221 (antibody)
# heavy: B1 heavy with W254Y, D314H, Y430M
# light: not shown
# notes: EU numbering; copies: 2 + 2
# B45: IgG1-F163 (antibody)
# heavy: B1 heavy with Y430F
# light: not shown
# notes: EU numbering; copies: 2 + 2
# B46: IgG1-F214 (antibody)
# heavy: B1 heavy with W254Y, T309V, Y430M
# light: not shown
# notes: EU numbering; copies: 2 + 2
# B47: IgG1-F193 (antibody)
# heavy: B1 heavy with W254M, P259T, T309A, Y430L
# light: not shown
# notes: EU numbering; copies: 2 + 2
# B48: IgG1-F210 (antibody)
# heavy: B1 heavy with W254Y, T309N, Y430M
# light: not shown
# notes: EU numbering; copies: 2 + 2
# B49: IgG1-F165 (antibody)
# heavy: B1 heavy with D267A, Y430M
# light: not shown
# notes: EU numbering; copies: 2 + 2
# B50: IgG1-F212 (antibody)
# heavy: B1 heavy with W254Y, T309R, Y430M
# light: not shown
# notes: EU numbering; copies: 2 + 2
# B51: IgG1-F206 (antibody)
# heavy: B1 heavy with W254Y, T309I, Y430M
# light: not shown
# notes: EU numbering; copies: 2 + 2
# B52: IgG1-F174 (antibody)
# heavy: B1 heavy with E384A, Y430M
# light: not shown
# notes: EU numbering; copies: 2 + 2
# B53: IgG1-F191 (antibody)
# heavy: B1 heavy with W254M, P259L, T309A, Y430L
# light: not shown
# notes: EU numbering; copies: 2 + 2
# B54: IgG1-F236 (antibody)
# heavy: B1 heavy with K250I, W254M, Y430L
# light: not shown
# notes: EU numbering; copies: 2 + 2
# B55: IgG1-F175 (antibody)
# heavy: B1 heavy with S426A, Y430M
# light: not shown
# notes: EU numbering; copies: 2 + 2
# B56: IgG1-F177 (antibody)
# heavy: B1 heavy with S300G, Y430M
# light: not shown
# notes: EU numbering; copies: 2 + 2
# B57: IgG1-F201 (antibody)
# heavy: B1 heavy with W254Y, T309D, Y430M
# light: not shown
# notes: EU numbering; copies: 2 + 2
# B58: IgG1-F205 (antibody)
# heavy: B1 heavy with W254Y, T309H, Y430M
# light: not shown
# notes: EU numbering; copies: 2 + 2
# B59: IgG1-F237 (antibody)
# heavy: B1 heavy with W254Y, Y430A
# light: not shown
# notes: EU numbering; copies: 2 + 2
# B60: IgG1-F178 (antibody)
# heavy: B1 heavy with D272F, Y430M
# light: not shown
# notes: EU numbering; copies: 2 + 2
# Target: T1, human FcRn (soluble human FcRn complexed with β2-microglobulin) (human, UniProt P61769 21-119, limits assumed)
# T1 construct: also called hFcRn
# Assay: SPR, pH 7.0;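 further: antibodies captured on a Protein L sensor chip with human FcRn injected as analyte, KD calculated from fitted association and dissociation rate constants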
row,Kd [nM],Binder
1,160,B1
2,190,B2
3,290,B3
4,190,B4
5,310,B5
6,250,B6
7,150,B7
8,740,B8
9,110,B9
10,270,B10
11,56,B11
12,35,B12
13,250,B13
14,170,B14
15,250,B15
16,1500,B16
17,770,B17
18,230,B18
19,220,B19
20,290,B20

row,Kd [nM],Binder
1,320,B21
2,110,B22
3,510,B23
4,130,B24
5,540,B25
6,290,B26
7,240,B27
8,230,B28
9,210,B29
10,370,B30
11,230,B31
12,240,B32
13,340,B33
14,48,B34
15,390,B35
16,270,B36
17,260,B37
18,230,B38
19,66,B39
20,220,B40

row,Kd [nM],Binder
1,120,B41
2,96,B42
3,120,B43
4,310,B44
5,420,B45
6,170,B46
7,85,B47
8,290,B48
9,290,B49
10,680,B50
11,230,B51
12,340,B52
13,160,B53
14,890,B54
15,270,B55
16,280,B56
17,210,B57
18,200,B58
19,230,B59
20,270,B60

# — US20200199241A1 (Chugai, published 2020)
